Assay results reported in publication PMC3076238, “Improved mycobacterial protein production using a Mycobacterium smegmatis groEL1ΔC expression strain” (BMC Biotechnology, 2011).

Target: AccA3, α-subunit of the acyl-CoA carboxylase AccD5-AccA3 complex (Rv3285) (M. tuberculosis, UniProt P96890 1-600)
Assay: SEC; […]; 25 mM Tris-HCl pH 8.0, 150 mM NaCl, 1 mM DTT
Details: both partners purified

AccA3, α-subunit of the acyl-CoA carboxylase AccD5-AccA3 complex (Rv3285), sequence (P96890 whole entry, one chain of several): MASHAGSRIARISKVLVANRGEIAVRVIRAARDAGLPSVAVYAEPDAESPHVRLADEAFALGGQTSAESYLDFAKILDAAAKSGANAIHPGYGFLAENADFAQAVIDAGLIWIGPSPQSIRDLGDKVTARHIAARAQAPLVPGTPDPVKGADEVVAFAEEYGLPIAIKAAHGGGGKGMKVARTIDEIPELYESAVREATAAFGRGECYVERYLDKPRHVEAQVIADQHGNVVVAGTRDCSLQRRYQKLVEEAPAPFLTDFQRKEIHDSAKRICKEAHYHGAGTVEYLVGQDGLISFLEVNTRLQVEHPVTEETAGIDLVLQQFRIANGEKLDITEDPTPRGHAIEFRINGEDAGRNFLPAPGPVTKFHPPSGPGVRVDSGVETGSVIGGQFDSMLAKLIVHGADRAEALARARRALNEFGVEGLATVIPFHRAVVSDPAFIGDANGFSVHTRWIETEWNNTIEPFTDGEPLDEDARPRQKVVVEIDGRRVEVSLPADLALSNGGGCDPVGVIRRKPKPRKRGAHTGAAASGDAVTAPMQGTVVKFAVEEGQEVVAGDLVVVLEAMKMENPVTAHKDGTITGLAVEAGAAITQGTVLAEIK

B1: AccD5, β-subunit of the acyl-CoA carboxylase AccD5-AccA3 complex (Rv3280), his-tagged (enzyme)
chain: MTSVTDRSAHSAERSTEHTIDIHTTAGKLAELHKRREESLHPVGEDAVEKVHAKGKLTARERIYALLDEDSFVELDALAKHRSTNFNLGEKRPLGDGVVTGYGTIDGRDVCIFSQDATVFGGSLGEVYGEKIVKVQELAIKTGRPLIGINDGAGARIQEGVVSLGLYSRIFRNNILASGVIPQISLIMGAAAGGHVYSPALTDFVIMVDQTSQMFITGPDVIKTVTGEEVTMEELGGAHTHMAKSGTAHYAASGEQDAFDYVRELLSYLPPNNSTDAPRYQAAAPTGPIEENLTDEDLELDTLIPDSPNQPYDMHEVITRLLDDEFLEIQAGYAQNIVVGFGRIDGRPVGIVANQPTHFAGCLDINASEKAARFVRTCDCFNIPIVMLVDVPGFLPGTDQEYNGIIRRGAKLLYAYGEATVPKITVITRKAYGGAYCVMGSKDMGCDVNLAWPTAQIAVMGASGAVGFVYRQQLAEAAANGEDIDKLRLRLQQEYEDTLVNPYVAAERGYVDAVIPPSHTRGYIGTALRLLERKIAQLPPKKHGNVPL
B1: binds.
